Values quoted from earlier work as cited in paper PMC9780825, “Combining mKate2-Kv1.3 Channel and Atto488-Hongotoxin for the Studies of Peptide Pore Blockers on Living Eukaryotic Cells” (Toxins, 2022).

Key:
[1] = target: Kv1.3 (Rattus norvegicus) (UniProt P15384); assay: two-electrode voltage clamp
Kv1.3 (Homo sapiens) [2] = target: Kv1.3 (Homo sapiens) (UniProt P22001); assay: two-electrode voltage clamp
Kv1.3 (Mus musculus) = Kv1.3 (Mus musculus) (UniProt P16390); assay: whole-cell patch clamp
Kv1.3 (Homo sapiens) [3] = target: Kv1.3 (Homo sapiens) (UniProt P22001); assay: Rb+ efflux
Kv1.3 (Homo sapiens) [4] = target: Kv1.3 (Homo sapiens) (UniProt P22001); assay: radioligand analysis

agitoxin 2, sequence (P46111 whole entry): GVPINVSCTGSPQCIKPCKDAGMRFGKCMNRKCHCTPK
Kv1.3 (Mus musculus), sequence (P16390 whole entry): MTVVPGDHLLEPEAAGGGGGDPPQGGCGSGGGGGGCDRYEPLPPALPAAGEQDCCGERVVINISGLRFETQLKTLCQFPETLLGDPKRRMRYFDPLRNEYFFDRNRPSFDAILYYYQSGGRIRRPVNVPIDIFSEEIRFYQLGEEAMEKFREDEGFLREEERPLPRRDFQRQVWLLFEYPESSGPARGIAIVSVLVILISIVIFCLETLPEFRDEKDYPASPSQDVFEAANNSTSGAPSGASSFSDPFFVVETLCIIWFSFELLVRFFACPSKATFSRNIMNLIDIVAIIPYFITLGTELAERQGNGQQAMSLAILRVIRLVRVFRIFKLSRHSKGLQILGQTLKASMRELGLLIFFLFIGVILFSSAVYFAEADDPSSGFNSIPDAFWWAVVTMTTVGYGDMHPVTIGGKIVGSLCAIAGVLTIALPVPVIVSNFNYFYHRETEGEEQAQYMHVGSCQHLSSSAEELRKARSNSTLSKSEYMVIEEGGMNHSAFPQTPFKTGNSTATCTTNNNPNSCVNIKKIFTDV
Kv1.3 (Homo sapiens), sequence (P22001 whole entry): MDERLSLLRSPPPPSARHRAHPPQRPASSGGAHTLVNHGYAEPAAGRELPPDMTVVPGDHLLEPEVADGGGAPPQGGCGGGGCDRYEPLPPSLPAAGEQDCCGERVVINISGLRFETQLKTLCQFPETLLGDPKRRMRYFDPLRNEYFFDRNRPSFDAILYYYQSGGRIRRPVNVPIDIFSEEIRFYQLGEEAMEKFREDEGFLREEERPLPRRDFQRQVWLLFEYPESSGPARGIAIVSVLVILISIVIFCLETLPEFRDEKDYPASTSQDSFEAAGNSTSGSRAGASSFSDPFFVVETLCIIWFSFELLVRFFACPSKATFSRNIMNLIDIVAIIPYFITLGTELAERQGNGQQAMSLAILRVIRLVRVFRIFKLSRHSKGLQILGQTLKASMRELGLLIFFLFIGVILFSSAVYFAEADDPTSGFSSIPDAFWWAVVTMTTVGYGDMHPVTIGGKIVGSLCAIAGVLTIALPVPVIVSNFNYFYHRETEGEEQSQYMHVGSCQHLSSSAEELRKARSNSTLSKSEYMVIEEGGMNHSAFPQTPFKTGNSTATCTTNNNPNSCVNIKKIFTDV
charybdotoxin, sequence (P13487 23-59): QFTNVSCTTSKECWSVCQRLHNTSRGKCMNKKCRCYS
hongotoxin 1, sequence (P59847 whole entry): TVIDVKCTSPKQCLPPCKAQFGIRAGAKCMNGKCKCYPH
kaliotoxin 1, sequence (P24662 whole entry): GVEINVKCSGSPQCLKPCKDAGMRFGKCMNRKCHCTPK
Kv1.3 (Rattus norvegicus), sequence (P15384 whole entry): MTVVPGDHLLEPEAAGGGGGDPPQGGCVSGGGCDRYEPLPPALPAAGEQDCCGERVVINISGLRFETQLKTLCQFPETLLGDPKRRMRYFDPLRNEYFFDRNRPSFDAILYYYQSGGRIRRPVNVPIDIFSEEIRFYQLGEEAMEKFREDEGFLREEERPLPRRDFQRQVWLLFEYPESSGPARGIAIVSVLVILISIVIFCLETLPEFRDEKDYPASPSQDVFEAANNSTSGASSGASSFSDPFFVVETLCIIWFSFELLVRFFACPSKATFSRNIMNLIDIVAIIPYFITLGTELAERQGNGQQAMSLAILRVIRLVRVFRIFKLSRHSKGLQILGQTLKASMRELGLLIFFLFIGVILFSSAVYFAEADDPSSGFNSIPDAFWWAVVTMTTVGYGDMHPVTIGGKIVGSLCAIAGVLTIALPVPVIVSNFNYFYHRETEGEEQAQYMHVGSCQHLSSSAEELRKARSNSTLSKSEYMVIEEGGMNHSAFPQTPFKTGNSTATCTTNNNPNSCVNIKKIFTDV

Row | Substance | Kd [1] [nM] | Kd (Kv1.3 (Homo sapiens) [2]) [nM] | Kd (Kv1.3 (Mus musculus)) [nM] | Kd (Kv1.3 (Homo sapiens) [3]) [nM] | Kd (Kv1.3 (Homo sapiens) [4]) [nM]
1 | agitoxin 2 (from UniProt P46111) | 0.004 | 0.05 | 0.2 | – | –
2 | charybdotoxin (from UniProt P13487) | – | 0.9 | 3 | – | –
3 | hongotoxin 1 (from UniProt P59847) | – | – | – | 0.086 | 0.00024
4 | kaliotoxin 1 (from UniProt P24662) | – | 0.01 | 0.65 | – | –
